No end group written: not given here. *: point of attachment. FITC = O=C1OC2(c3ccc(O)cc3Oc3cc(O)ccc32)c2ccc(NC(=S)*)cc21; Ahx = NCCCCCC(=O)O

The target of series [1] is T1, recombinant PCNA protein (Homo sapiens, UniProt P12004). The series can be described thus: Fluorescence polarization competition assay (displacement of FITC-PL peptide from PCNA). The series is classed as binding. The arrangement: (His)6 (N); TEV protease recognition site (N); made in house; host or cells: E. coli BL21(DE3). The protocol: (3) and represented as mean ± standard error of mean (Y). Fraction of the FITC-PL peptide bound (Y) was plotted as a function of the logarithm of the 12 amino acid peptide antagonist concentration (X), and IC50 values were determined by fitting the data to Eq. […] Anisotropy values were also analyzed using complete and incomplete binding models without non-specific effects as outlined in Roehrl et al..
T1 sequence (P12004 whole entry): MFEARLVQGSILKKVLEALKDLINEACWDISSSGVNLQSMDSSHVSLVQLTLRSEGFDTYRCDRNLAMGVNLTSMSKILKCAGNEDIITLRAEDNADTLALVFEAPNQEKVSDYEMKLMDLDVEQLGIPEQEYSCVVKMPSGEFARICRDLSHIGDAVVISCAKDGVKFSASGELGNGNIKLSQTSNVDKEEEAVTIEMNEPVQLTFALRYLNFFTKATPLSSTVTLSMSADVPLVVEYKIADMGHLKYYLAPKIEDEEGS
A general note: Fluorescence polarisation rises when a labelled molecule tumbles more slowly, as on binding a larger partner.

Series [2] can be described thus: Aggregation observed in the fluorescence polarization competition assay. The series is classed as physicochemical. The settings on record: FP competition assay, binding buffer; result in words. The method, then: Competition assays were analyzed by fluorescence polarization on a DTX880 Multimode plate reader (Beckman Coulter) using an excitation of 485 nm and an emission filter at 535 nm at 30°C. Anisotropy values (N = 4) were statistically evaluated using Grubbs' test for outliers at a significance level of 0.05 and converted to fraction of FITC-PL peptide bound (fb) using Eq. (3) and represented as mean ± standard error of mean (Y).

The target in series [3] is T1, recombinant PCNA protein. The series can be described thus: ITC. Conditions: cited from earlier work.
Series [4] deals with T2, recombinant PCNA protein (human, UniProt P12004 1-261).
T2 construct: PCNA (proliferating cell nuclear antigen), human; The vector has a TEV protease site after the (His)6 tag, and no cleavage is described; also called (His)6-PCNA; source: E. coli BL21(DE3), purified (Ni-NTA, dialysis)
T2 sequence (P12004 whole entry): as above
Kind of series: fluorescence polarisation; competition: increasing unlabeled 12-mer peptide against 50 nM N-terminal FITC-PL peptide and 1 µM PCNA (monomer concentration); 25 mM HEPES pH 7.4, 10% glycerol, 0.01% Triton X-100; 30 min at room temperature, read at 30°C; fraction of FITC-PL bound fitted to the complete (Eq. 6) or incomplete (Eq. 7, four-state) competition model of Roehrl et al.; estimated dissociation constants. Conditions: both partners purified.

Series [5] concerns the target T3, recombinant PCNA protein (N-terminal (His)6-PCNA) (human, UniProt P12004 1-261).
T3 construct: PCNA, human; amplified by PCR from a template plasmid (Genecoepia) into pEV-L8, which has an N-terminal (His)6-tag and a TEV protease recognition site; No TEV cleavage is described; also called human PCNA; source: E. coli BL21(DE3), purified (Ni-NTA)
The series can be described thus: fluorescence polarisation; competition: increasing unlabeled peptide with 50 nM FITC-PL peptide and 1 µM PCNA (monomer concentration); 25 mM HEPES pH 7.4, 10% glycerol, 0.01% Triton X-100; 30 min at room temperature, read at 30°C; Ki from a modified Cheng-Prusoff equation. Conditions: both partners purified.

Series [6] deals with T3, recombinant PCNA protein (N-terminal …). The series is described as above. The settings on record: both partners purified. The source holds these as a separate data set.
For series [7] the target is unchanged. Kind of series: fluorescence polarisation; direct binding: increasing recombinant PCNA (monomer concentration) added to 50 nM FITC-PL peptide; 25 mM HEPES pH 7.4, 10% glycerol, 0.01% Triton X-100; 30 min at room temperature, read at 30°C; fit with a Hill slope. The settings on record: both partners purified.

T3 sequence (P12004 whole entry): as above

As for “NRQVSITGFFQR [DNA polymerase δ (p66 subunit), 12-amino acid PIP Box peptide modeled after the p66 subunit of DNA polymerase δ]”, in series [1] (Hill slope n of the fit to Eq. (4), 50 nM FITC-PL, 1 µM PCNA (monomer)), the “Hill Slope” value is recorded as −1.2±0.2.

For GVQRNHETAFQG [Mcl-1], the “binding to recombinant PCNA in the competition assay” value in series [1] (result in words) is “did not bind”. Also, in series [2], the “aggregation of the tracer at higher concentrations” value is given as “not observed”.

As for RRQTSMTDFYHS-NH2 [p21], the Kd in series [1] (estimated dissociation constant of competitive ligand-PCNA interaction, Roehrl et al. binding models, Eq. (6)/(7), read-out: Kd2) was 615 ± 251 nM; in series [1] (incomplete competition model (four state), Roehrl et al., Eq. (7), read-out: Kd3) it was 3100 ± 200 nM.

Turning to “p21 12-mer PIP box peptide PIP box (from UniProt P38936)”, the Kd in series [3] was 640 nM.

B1: Akt 12-mer reverse PIP Box peptide (peptide)
peptide: HRFFAGIVWQHV
notes: reverse PIP Box stretch of Akt, found by screening the human genome; Made on CLEAR Amide resin, so the C-terminus is probably an amide; source: synthetic peptide (solid phase, HPLC purified)
As to B1, the Kd in series [4] is 2000 ± 400 nM.

B2: PI3K (p85α subunit) 12-mer PIP Box peptide (peptide)
peptide: TLQYLLKHFFKL
notes: PIP Box stretch of the PI3-kinase p85α regulatory subunit (PIK3R1), found by screening the human genome; Made on CLEAR Amide resin, so the C-terminus is probably an amide; also called PI3-kinase (p85α regulatory domain); source: synthetic peptide (solid phase, HPLC purified)
For the molecule B2, the Kd in series [4] is 1600 ± 600 nM.

B3: Akt 12-mer reverse PIP Box peptide mimic (peptide)
peptide: HRFFAGIVWQHV
notes: 12-mer modeled after the reverse PIP Box of Akt, found by a screen of the human genome; Synthesised on CLEAR Amide resin, so the C-terminus is probably an amide (surmised); also called Akt peptide; reverse-PIP Box Akt peptide; source: synthetic peptide (solid phase, HPLC purified)
Usually IC50 stands for the concentration that gives 50% inhibition. What is called Ki is a dissociation constant, usually derived from enzyme kinetics or from competition with a known ligand. For B3, in series [5], the IC50 worked out at 8500 ± 4200 nM, the Ki was 3400 nM and the “fb at [peptide]max (fraction of FITC-PL bound)” value (shortened to “fb … (fraction of FITC-PL bound)”) stood at 0.06.

B4: PI3K (p85α subunit) 12-mer PIP Box peptide mimic (peptide)
peptide: TLQYLLKHFFKL
notes: 12-mer modeled after the PIP Box of PI3-kinase p85α, found by a screen of the human genome; Synthesised on CLEAR Amide resin, so the C-terminus is probably an amide (surmised); also called p85α peptide; PI3-kinase (p85α regulatory domain); source: synthetic peptide (solid phase, HPLC purified)
As to B4, in series [5], the IC50 was 7500 ± 300 nM, the Ki amounted to 2900 nM and the “fb … (fraction of FITC-PL bound)” value was 0.

B5: unlabeled POGO-ligase (PL) peptide (peptide)
peptide: SAVLQKKITDYFHPKK
notes: Synthesised on CLEAR Amide resin, so the C-terminus is probably an amide (surmised); also called control PL peptide; source: synthetic peptide (solid phase, HPLC purified)
On to B5, for which the IC50 in series [6] came out at 144 ± 13 nM. Also, in series [5], the IC50 is 145 ± 13 nM, the Ki was 136 nM and the “fb … (fraction of FITC-PL bound)” value is 0.

B6: Abl 12-mer PIP Box peptide mimic (peptide)
peptide: PGQRSISLRYEG
notes: Synthesised on CLEAR Amide resin, so the C-terminus is probably an amide (surmised); also called Abl peptide; source: synthetic peptide (solid phase, HPLC purified)
As to B6, in series [5], the 50% inhibitory concentration (IC50) came to 71300 ± 12100 nM, the Ki is 30400 nM and the “fb … (fraction of FITC-PL bound)” value is 0.1.

B7: DNA polymerase δ (p66 subunit) 12-mer PIP Box peptide mimic (peptide)
peptide: NRQVSITGFFQR
notes: 12-mer modeled after the PIP Box of the p66 subunit of DNA polymerase δ; Synthesised on CLEAR Amide resin, so the C-terminus is probably an amide (surmised); also called p66 peptide; source: synthetic peptide (solid phase, HPLC purified)
Consider B7, for which, in series [5], the IC50 came to 67900 ± 15800 nM, the Ki came to 28900 nM and the “fb … (fraction of FITC-PL bound)” value is 0.

B8: p21 12-mer PIP Box peptide mimic (peptide)
peptide: RRQTSMTDFYHS
notes: 12-mer modeled after the C-terminal PIP Box of the tumor suppressor p21; Synthesised on CLEAR Amide resin, so the C-terminus is probably an amide (surmised); also called p21 peptide; p21 12-amino acid peptide; source: synthetic peptide (solid phase, HPLC purified)
Take B8: in series [5], the IC50 turned out to be 1800 ± 500 nM, the Ki is 477 nM and the “fb … (fraction of FITC-PL bound)” value amounted to 0.25.

B9: Abl 12-mer PIP Box peptide (peptide)
peptide: PGQRSISLRYEG
notes: PIP Box stretch of Abl (ABL1), lying in the SH2 domain; Made on CLEAR Amide resin, so the C-terminus is probably an amide; source: synthetic peptide (solid phase, HPLC purified)
As for B9, in series [4], the Kd is 52900 ± 14700 nM.

B10: DNA polymerase δ (p66 subunit) 12-mer PIP Box peptide (peptide)
peptide: NRQVSITGFFQR
notes: PIP Box stretch of the p66 subunit of DNA polymerase δ (POLD3); Made on CLEAR Amide resin, so the C-terminus is probably an amide; source: synthetic peptide (solid phase, HPLC purified)
As for B10, in series [4], the Kd is 20800 ± 4400 nM.

B11: N-terminal fluorescein isothiocyanate (FITC) labeled PL peptide (peptide)
peptide: {FITC-Ahx}-SAVLQKKITDYFHPKK
notes: Synthesised on CLEAR Amide resin, so the C-terminus is probably an amide (surmised); also called FITC-PL peptide; FITC-PL; source: synthetic peptide (solid phase, HPLC purified)
In the case of B11, in series [7], the Kd is 760 ± 19 nM.
